The record followed here is publication doi:10.1101/2021.05.19.444448.

For data set [1], the target named is T1, HA-PGBD1 (Homo sapiens, UniProt Q96JS3 1-809).
T1 sequence: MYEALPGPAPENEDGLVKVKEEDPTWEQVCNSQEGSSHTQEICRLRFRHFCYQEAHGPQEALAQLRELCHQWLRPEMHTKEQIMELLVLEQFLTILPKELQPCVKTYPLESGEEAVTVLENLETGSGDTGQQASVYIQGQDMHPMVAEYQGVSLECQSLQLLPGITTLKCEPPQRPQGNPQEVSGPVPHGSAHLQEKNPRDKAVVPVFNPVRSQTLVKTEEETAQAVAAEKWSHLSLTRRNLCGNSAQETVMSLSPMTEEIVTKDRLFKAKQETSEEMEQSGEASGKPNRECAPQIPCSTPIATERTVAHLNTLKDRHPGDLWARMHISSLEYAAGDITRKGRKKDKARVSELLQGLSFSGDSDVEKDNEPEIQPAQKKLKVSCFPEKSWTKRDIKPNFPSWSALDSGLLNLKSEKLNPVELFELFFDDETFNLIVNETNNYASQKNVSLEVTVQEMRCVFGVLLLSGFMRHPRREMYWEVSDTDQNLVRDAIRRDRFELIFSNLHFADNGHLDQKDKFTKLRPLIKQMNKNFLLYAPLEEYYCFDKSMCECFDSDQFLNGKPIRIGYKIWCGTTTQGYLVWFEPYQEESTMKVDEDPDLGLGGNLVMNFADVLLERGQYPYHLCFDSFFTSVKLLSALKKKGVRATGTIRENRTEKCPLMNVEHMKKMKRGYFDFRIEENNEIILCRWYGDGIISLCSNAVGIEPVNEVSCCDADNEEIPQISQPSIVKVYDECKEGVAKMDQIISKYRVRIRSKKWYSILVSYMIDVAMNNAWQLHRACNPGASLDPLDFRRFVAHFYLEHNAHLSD
Nature of the data set: EMSA.

Data set [2] addresses T1, HA-PGBD1. Description: competition.

B1: SCAN-12 / PGBD1 oligo (GS-PGBD1-UP/LOW) (dsDNA)
DNA 1: GCTTTCAATGGAATGGAATGCCTTCC
DNA 2: GGAAGGGATTCCATTCCATTGAAAGC
With B1, in the data set with HA-PGBD1 [1], the binding result is listed as “binds”.

B2: unlabelled PGBD1 oligo (competitor) (dsDNA)
DNA 1: GCTTTCAATGGAATGGAATGCCTTCC
DNA 2: GGAAGGGATTCCATTCCATTGAAAGC
In the case of B2, in the data set with HA-PGBD1 [2], the binding result was “binds”.
